The nanobody polyreactivity screen of Harvey et al. (2022)

Experiment: yeast display, Sf9 membrane polyspecificity reagent, FACS + sequencing; frameworks hold sequencing errors
How it was run: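 Nanobodies from a synthetic yeast display library (Saccharomyces cerevisiae BJ5465), induced 36–48 hours with galactose, were stained 1 hour at 4 °C with 10% biotinylated, detergent-solubilized Sf9 membrane reagent, enriched on streptavidin microbeads, then FACS-sorted. Anti-HA (expression) and streptavidin (reagent binding) fluorescence set low and high (top ~1%) gates. Polyreactivity labels come from the gate of origin. Genes were colony-PCR amplified, MiSeq 2 × 250 sequenced and filtered by CDR length.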

QVQLVESGGGLVQAGGSLRLSCAGSGGIIGSNAMGWYRQAPGKERELVAAINTRGGRTYYADSVKWRFTISRDNAKNTVYLQMNILKPEDTAVYYCATVSYSSRRDRYDYWGQGTQVTVSS
polyreactivity (PSR sort gate): high polyreactivity

QVQLVESGGGLVQAGGSLRLSCAASGRIFYAYAMGWYRKAPGKERELVAAITETGGNTYYADSVKGRFTISRDNAKNTVYLQMNSLKPEDTAVYYCARKGRRTHHYGLYSSSVYYWGQGTQVTVSS
polyreactivity (PSR sort gate): low polyreactivity

QVQLVESGGGLVQAGGSHRLSCAASGSTFTGYAMACYRQAPGKEREFVAGNTGSGGSTYYADSVKGRFTISRDIAKNSVYFQMISLKPEDTAVYYCAASFWYHYVWLDYYWGQGTQVTVSS
polyreactivity (PSR sort gate): low polyreactivity

QVQLVESGGGLVQAGGSLRLSCAASGSTFYYYAMGWYRQAPGKERELVASITTGGGSTYYADSVKGRFTISRDNAKNTVYLQMNSLKPEDTAVYYCAAALAYYYWWYDYWGQGTQVTVSS
polyreactivity (PSR sort gate): low polyreactivity

QVQLVESGGGLVQAGGSLRLSCAASGITFRYYAMGWYRQAPGKERELVAAISSTGGSTYYADSVKGRFTISRDNAKNTVYLQMNSLKPEDTAVYYCNADTTFYGYRTYRPENYWGQGTQVTVSS
polyreactivity (PSR sort gate): high polyreactivity

QVQLVESGGGLVQAGGSLRLSRAASGGTFFVYMGWYRQAPGKERELVADISGSGGGTYYADSVKGRFTISRDNAKNTVYLQMNSLKPEDTAVYYCATDVPTGIIRMYWGQGTQVTVSS
polyreactivity (PSR sort gate): low polyreactivity

QVQLVESGGGLVQAGGSLRLSCAASGRTSDINTMGWYRQAPGKERELVAAISDSDGTTYYADSVKGRFTISRDNAKNTVYLQMNSLKPDDTAVYYCAAERATVKFGYWGQGTQVTVSS
polyreactivity (PSR sort gate): low polyreactivity

QVQLVESGGGLVQAGGSLRLSCAASGLTFLYYAMGWYRQAPGKEREFVAAIDISGGSTYYADSVKGRFTISRDNAKKTVYLQMYSLKPEDTAVYYCAVEPWYYLAGRSQYDYWGQGTQVTVSS
polyreactivity (PSR sort gate): low polyreactivity

QVQLVESGGGLVQAGGSLRLSCAASGRIFPQYAMGWYRQAPGKERELVAAISVSGTRTYYADSVKGRFTISRDNAKNTVYLQMNSLKPEDTAVYYCNTLGKYDGFYYWGQGTQVTVSS
polyreactivity (PSR sort gate): high polyreactivity

QVQLVESGGGLVQAGGSLRLSCAASGSIFRRYAMGWNRQAPGKERELVAYISRSGGSTYYADSVKGRFTISRDNAKNTVYLQMNRLKPEDTAVYYCAAQRYRTGDSWGQGTQVTVSS
polyreactivity (PSR sort gate): high polyreactivity

QVQLVDSGGGLVQAGGSHRLSCADSGTFVYNAMGWYRQAPGKEREFVAAITKSGTSTSYADSVKGRFTISRDNAKNTVYLQMNSLIPEATAVYYCNARRYWYRRAYSVGYDYWGQGTQVTVSA
polyreactivity (PSR sort gate): high polyreactivity

QVQLVESGGGLVQAGGSLRLSCAASGRIVNFYAMGWYRQAPGKEREFVAAISWSGGSTSYADSVKGRFTISRDTAKKTDYLQMNSLKPEDTAVSYCAVRWSSRSRRYNYWGQGTQVTVSS
polyreactivity (PSR sort gate): high polyreactivity

QVQLVESGGGLVQAGGSLRLSCAASGSIFQRYTMGWYIQAPGKERELVAAISWSGDGTYYADSVKGRFTISRDNAKNTFYLQMNSLKPEDTAVYYCNDGYTRRYRFRVENDYDYWGQGTQVTVSS
polyreactivity (PSR sort gate): high polyreactivity

QVQLVESGGGLVQAGGSLRLSSAASGRIFKYYAMGWYRQAPGKERELVAAISWRGGRTYYADSVKGRFTISRDNAKNTVYLQMNSLKPEDTAVYYCAAEWYATMGYWGQGTQVTVSS
polyreactivity (PSR sort gate): low polyreactivity

QVQLVESGGGLVQAGGSLRLSCAASGRIFSSNAMGWYRQAPGKERELVAAITKSGGGTYYADSVKGRFTISRDNAKNTVYLQMNSLKPEDSAVYYCAADHGRPYFSYDYWGQGTQVTVSS
polyreactivity (PSR sort gate): low polyreactivity

QVQLVESGGGLFLAGGSLRLSCAAAGSTFVTNDMGWYRQAPGKERELVAAISVGGRTSYADSVKGRFTISRDNAKNTVYLQMNSLKPEDTAVYYCAAQYRYTYWGQGTQVTVSS
polyreactivity (PSR sort gate): low polyreactivity

QVQLVESAGGLVQAGGSLRLSCAASGYTFKLYAMGWSRQAPGKERELVAAIRQRGGTTYYADSVKGRVTISRDNAKNTVYLQMNSLKPEDTAVYYCAVRFYLPNANGGYYYWGQGTQVTVSS
polyreactivity (PSR sort gate): high polyreactivity

QVQLVESGGGLVQAGGSLRLSCAASGRIFVSNAMGWYRQAHGKERELVAGITWTSGSTYYADSVKGRFTISRDNAKNTVYLLMNSLKPEDTAVYYCAAEYWYGNAFDYWGEGTQVTVSS
polyreactivity (PSR sort gate): low polyreactivity

QVQLVESGGGLVQAGGSLRLSCAASGSTFPGNAMGWYRQAPGKERELVASISGGGDSTYYADSVKGRFTISRDNAKNTVYLQMNSLKPEDTAVYYCAADYRQEPGYTGYYYWGQGTQLTVSS
polyreactivity (PSR sort gate): low polyreactivity

QVQLVESGGGLVQAGRSLRLSCAASGRTFGYNPMGWYRQAPGKEREFVAAISYSGTSTYYADSVKGRFTISRDNAKNTVYLQMNSLKPEDTAVYYCNAEALISWRYDYWGQGTQVTVSS
polyreactivity (PSR sort gate): low polyreactivity

QVQLVESGGGLVQAGGSLRLSCAASGRIFDLNAMGWYRQAPGKERELVAAITFSGGDTYADSVKGRFTISRDNAKNTVYLEMYSLKPEDTAVYYCAKDHYGDDTYGTPYDYDYWGQGTQVTVSS
polyreactivity (PSR sort gate): low polyreactivity

QVQLVESGGGLVQAGGSLRLSCAASGRIFQYYDMGWYRQAPGKERELVATITSGGSTNYADSVKGRFTISRDNAKNTVYLQMNSLKPEDTAVYYCAALAYTASDYQPYDATEYNYWGQGTQVTVSS
polyreactivity (PSR sort gate): low polyreactivity

QVQLVESGGGLVQAGGSLRLSCAATGFIFERNAMGWYRQAPGKERELVAVISYSGGRTYYADSVKGRFTISRDNANNTVYLQMNSLKPEDTAVYYCAATIVKYGYHYDYWGQGTQVTVSS
polyreactivity (PSR sort gate): high polyreactivity

QVQLVESGGGLVQAGGSLRLSCAASGFIFIAYAMGWYRQAPGKERELVAAISKSGTRTYYADSVKGRFTISRDNAKNTVYLQMNSLKPEDTAVYYCATYSTYNKGTHGDYWGQGTQVTVSS
polyreactivity (PSR sort gate): high polyreactivity

QVQLVESGGGLVQAGGSLRLSCAASGSIFYHYAMGWYRQAPGKERELVAAITITGGSTYYADSVKGRFTISRDNAKNTVYLQMNSLKPEDTAVYYCARKWYVHYNYWGQGTQVTVSS
polyreactivity (PSR sort gate): high polyreactivity

QVQLVESGGGLVQAGGSLRLSCAASGRTFKTYAMGWYRQAPGKERELVAAISRDGRTYYADSVKGRFTISRDNAKNTVYLQMNSLKPEDTAVYYCNKRSYRKGDYWGQGTQVTVSS
polyreactivity (PSR sort gate): low polyreactivity

QVQLVESRGGLVQAGGSLRLSCAASGRTFLGYAMGWYRQAPGKERELVAAISYSGSSTYYADSVKGRFTISRDNAKNTVYLQMNSLKPEDTAVYYCAAQFYFLFDYWGQGTQVTVSS
polyreactivity (PSR sort gate): low polyreactivity

QVQLVESGGGLVQAGGSLRLSSAASGRTIAYYTKGWYRQAPGKVRELVAAITWTGGRTYYPDSVKGRFTISRDIAKNTVYLQMNSLQPEDTAVYYCATQHRAGAYYLYTPYDYWGQGTQVTVSS
polyreactivity (PSR sort gate): high polyreactivity

QVQLVESGGGLVQAGGSLRLSCAASGSTFYFNAMGWYRPAPGKERELVAAIDWSGGSTYYADSVKGRFTISRDNAKNTVYLQMNSLKPEDTAVYYCAADISVGRYGDMDYYYKVDYWGQGTQVTVSS
polyreactivity (PSR sort gate): low polyreactivity

QVQLEESGGGLVQAGGSLRLICAASGSTFGDNAMGWSRQAPGKEGEFVAGISTNGGSTYYADSVKGRFTISRDNAKNTFYLQMNSLKPEDIAVYSCAAVNYYDQYGDYYWGQGTQVTVSS
polyreactivity (PSR sort gate): low polyreactivity

QVQRVDSGGGLVQAGGSLRLSCAASGSIFEWYDMVWYRQAPGTERELVAAITTGGITNYSDSVKARFTISRDNAKNTVYLQMNSLKPEDTAVYYCNADFTVEFDYWGQGTQVTVSS
polyreactivity (PSR sort gate): low polyreactivity

QVQLVESGGGLVQAGGSLRLSCAASGFTFKVYAMGWYRQAPGKERELVAAISKSGGSTYYADSVKGRFTISRDNAMNTVYLQMNSLKPEDTAVDYCATGGYAYVYPYDYWGQGTQVTVSS
polyreactivity (PSR sort gate): low polyreactivity

QVQLVESGVGLVQAGGTLRLSCAASGFTFVRYAMAWYRQAPGKEREFVASISARGCNTFYADSVKGRFTISRDNAKNTVYLQMNSLKPEDTAVYYCAKRGPYGTGYGYWGQGTQVTVSS
polyreactivity (PSR sort gate): high polyreactivity

QVQLVESGGGLVQAGGSLRLSCAASGLTFPWYAMGWYRQAPGKERELVAGISWSGGSTYYADSVKGRFTNSRDNAKNTVYLQMNSLKPEDTAVYYCKLVKTTSTLGKRRYDYWGQGTQVTVSS
polyreactivity (PSR sort gate): high polyreactivity

QVQLVESGGGLVQAGGSLRLSCAASGTFVTYMGWYRQSPGKEREMVAAIRNGGSTNYADSVKGRFTISRDNAKNTVYLQMNSLKPEDTAVYYCAARVTYSRGYRGGSRTKYDYWGQGTQVTVSS
polyreactivity (PSR sort gate): low polyreactivity

QVQLVESGGGLVQAGVSLRLSCASSGYTYHVYAMGWYRQAPGKERELVAAISTGDDTTFYADSVKVRFTISRDNAKNTVYLQMNSLKPEDTAVYYCAAAYGTPYGGYDYWGQGTQVTVSS
polyreactivity (PSR sort gate): low polyreactivity

QVQLVESGGGLVQAGGSLRLSCAASGSTFYVYAMGWYRQAPGNERELVAAITSGGSTNYADSVKGRFTISRDNAKNTVYLQMNSLKPEDTAVYYCAAQGRVWDSYGYEYVQEVTRDYWGQGTQVTVSS
polyreactivity (PSR sort gate): low polyreactivity

QVQLVESGGGLVQAGGSLRLSCAASGFTFPYYAMGWYRPAPGKDRELVARISSGGSTHYADSVKGRFTISRDNAKNTVYVQMNSLKPEDTADYYCAREPWWGYHGEYDYWGQGTEVTVSS
polyreactivity (PSR sort gate): high polyreactivity

QVQLQESGGGLVQAGGSLRLSCAASGTISYAPHMGWYRQAPGTDSELVAGITIGGTTYYADSVKGRFTISRDNAKNTVYLQMNSLSPGDTAVYYCAAHSEQYTPFYYWGQGTQVTVSS
polyreactivity (PSR sort gate): low polyreactivity

QVQLVESGGCLVQAGGSPRLSCAASGSILTLYAMGWYRQAPGKERELVAAITSGERTNYADSVKGRFTISRDNAKNTVYLQMNSLKPEDTAVYYCATKRWWGRYDYWGQGTQVTVSS
polyreactivity (PSR sort gate): high polyreactivity

QVQLVDSGGGLVQAGASLRLSCAASGSIFRFYAMGWYRQAPGKERELVAAITSRGSTNYADSVKGRFTISRDNAKNTVYLQMKSLKPEDTAVYYCAAELVYFVIYDYWGLGTQVTVSS
polyreactivity (PSR sort gate): low polyreactivity

QVQLVESVGGLVQAGGSLRLSCAASGSIFGFYAMGWYRQAPGKERELDAVISSDASKNYADSVKGRFTISRDNAKNTVYLQMKSLKPEDTAVYYCNAVAYGYHFFSYYSVDYWGQGTQVTVSS
polyreactivity (PSR sort gate): low polyreactivity

QVQLVESGGGLVQAGGSLRLSCAASGSTFDSYARVWYRQAPGKETELVARISIVGSTNYADSVKGRFTISRANAKNTVYLQMNCLKPDDTAVYYCAADRDWQYSFRHSVYGYDYDYWGQGTLVTVSS
polyreactivity (PSR sort gate): low polyreactivity
